Measurements: paper PMC10397247
Each block holds one binder with its values, some of them ahead of it.

Key:
P9 = molecular target: T1, P9; test: two-hybrid library CC1; conditions: mean of both orientations;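 also: natural log of median RNA to DNA barcode read ratio; higher means stronger binding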
T1 chain: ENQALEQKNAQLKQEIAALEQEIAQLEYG

P7 = molecular target: T2, P7; test: two-hybrid library CC1; conditions: mean of both orientations;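 also: natural log of median RNA to DNA barcode read ratio; higher means stronger binding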
T2 chain: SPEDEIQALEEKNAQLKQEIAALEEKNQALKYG

P6mS = molecular target: T3, P6mS; test: two-hybrid library CC1;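 also: natural log of median RNA to DNA barcode read ratio; higher means stronger binding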
T3 chain: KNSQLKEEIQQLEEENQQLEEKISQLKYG

P7mS = molecular target: T4, P7mS; test: two-hybrid library CC1; conditions: mean of both orientations;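 also: natural log of median RNA to DNA barcode read ratio; higher means stronger binding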
T4 chain: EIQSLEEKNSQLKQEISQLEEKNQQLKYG

P8mS = molecular target: T5, P8mS; test: two-hybrid library CC1; conditions: mean of both orientations;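 also: natural log of median RNA to DNA barcode read ratio; higher means stronger binding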
T5 chain: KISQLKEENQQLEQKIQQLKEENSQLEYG

P8 = molecular target: T6, P8; test: two-hybrid library CC1; conditions: mean of both orientations;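 also: natural log of median RNA to DNA barcode read ratio; higher means stronger binding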
T6 chain: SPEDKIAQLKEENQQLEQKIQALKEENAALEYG

4H3364-bH = molecular target: T7, 4H3364-bH; test: two-hybrid library CCNG1
T7 chain: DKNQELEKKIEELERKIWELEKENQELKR

4H730-bH = molecular target: T8, 4H730-bH; test: two-hybrid library CCNG1
T8 chain: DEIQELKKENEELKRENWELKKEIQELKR

4H3297-bH = molecular target: T9, 4H3297-bH; test: two-hybrid library CCNG1
T9 chain: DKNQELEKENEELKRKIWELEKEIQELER

4H56-bH = molecular target: T10, 4H56-bH; test: two-hybrid library CCNG1
T10 chain: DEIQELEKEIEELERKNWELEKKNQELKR

4H3041-bH = molecular target: T11, 4H3041-bH; test: two-hybrid library CCNG1
T11 chain: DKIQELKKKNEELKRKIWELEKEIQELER

4H949-bH = molecular target: T12, 4H949-bH; test: two-hybrid library CCNG1
T12 chain: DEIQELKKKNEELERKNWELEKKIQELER

4H932-bH = molecular target: T13, 4H932-bH; test: two-hybrid library CCNG1
T13 chain: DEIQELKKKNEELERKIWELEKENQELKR

4H3381-bH = molecular target: T14, 4H3381-bH; test: two-hybrid library CCNG1
T14 chain: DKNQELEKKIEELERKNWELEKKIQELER

4H349-bH = molecular target: T15, 4H349-bH; test: two-hybrid library CCNG1
T15 chain: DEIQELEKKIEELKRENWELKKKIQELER

4H796-bH = molecular target: T16, 4H796-bH; test: two-hybrid library CCNG1
T16 chain: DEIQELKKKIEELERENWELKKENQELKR

4H319-bA = molecular target: T17, 4H319-bA; test: two-hybrid library CCNG1
T17 chain: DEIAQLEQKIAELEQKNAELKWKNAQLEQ

4H3277-bA = molecular target: T18, 4H3277-bA; test: two-hybrid library CCNG1
T18 chain: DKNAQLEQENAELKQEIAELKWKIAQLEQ

4H492-bA = molecular target: T19, 4H492-bA; test: two-hybrid library CCNG1
T19 chain: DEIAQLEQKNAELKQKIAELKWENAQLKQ

4H3057-bA = molecular target: T20, 4H3057-bA; test: two-hybrid library CCNG1
T20 chain: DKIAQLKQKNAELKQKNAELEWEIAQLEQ

4H348-bA = molecular target: T21, 4H348-bA; test: two-hybrid library CCNG1
T21 chain: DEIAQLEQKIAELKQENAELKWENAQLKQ

4H741-bA = molecular target: T22, 4H741-bA; test: two-hybrid library CCNG1
T22 chain: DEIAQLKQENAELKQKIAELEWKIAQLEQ

4H40-bA = molecular target: T23, 4H40-bA; test: two-hybrid library CCNG1
T23 chain: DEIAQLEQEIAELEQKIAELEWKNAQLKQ

4H477-bA = molecular target: T24, 4H477-bA; test: two-hybrid library CCNG1
T24 chain: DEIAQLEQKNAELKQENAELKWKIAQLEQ

GCN2_T = test: two-hybrid library CCmax
P9-AA = molecular target: T25, P9-AA; test: two-hybrid library CCmax; conditions: mean of both orientations
T25 chain: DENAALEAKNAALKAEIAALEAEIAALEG

P3-AA = molecular target: T26, P3-AA; test: two-hybrid library CCmax; conditions: mean of both orientations
T26 chain: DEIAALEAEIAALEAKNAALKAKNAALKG

P2-AA = molecular target: T27, P2-AA; test: two-hybrid library CCmax; conditions: mean of both orientations
T27 chain: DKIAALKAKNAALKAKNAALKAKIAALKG

P7-AA = molecular target: T28, P7-AA; test: two-hybrid library CCmax; conditions: mean of both orientations
T28 chain: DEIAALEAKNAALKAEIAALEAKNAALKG

AP8-AA = molecular target: T29, AP8-AA; test: two-hybrid library CCmax
T29 chain: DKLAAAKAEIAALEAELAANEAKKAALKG

P12-AA = molecular target: T30, P12-AA; test: two-hybrid library CCmax; conditions: mean of both orientations
T30 chain: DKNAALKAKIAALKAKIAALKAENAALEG

P4-AA = molecular target: T31, P4-AA; test: two-hybrid library CCmax; conditions: mean of both orientations
T31 chain: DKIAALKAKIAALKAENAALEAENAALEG

P11-AA = molecular target: T32, P11-AA; test: two-hybrid library CCmax; conditions: mean of both orientations
T32 chain: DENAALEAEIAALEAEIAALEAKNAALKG

P1-AA = molecular target: T33, P1-AA; test: two-hybrid library CCmax; conditions: mean of both orientations
T33 chain: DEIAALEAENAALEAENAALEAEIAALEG

P10-AA = molecular target: T34, P10-AA; test: two-hybrid library CCmax; conditions: mean of both orientations
T34 chain: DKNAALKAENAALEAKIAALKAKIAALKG

P8-AA = molecular target: T35, P8-AA; test: two-hybrid library CCmax; conditions: mean of both orientations
T35 chain: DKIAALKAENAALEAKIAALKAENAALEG

Binder: KNSQLKEEIQQLEEENQQLEEKISQLKYG [P6mS]
interaction score (P9): -2.37
interaction score (P7): -2.01
interaction score (P6mS): -2.84
interaction score (P7mS): -2.67
interaction score (P8mS): -2.85
interaction score (P8): -2.63

Binder: DKIQELKKKNEELKRKIWELEKEIQELER [4H3041-bH]
interaction score (4H3364-bH): -1.08
interaction score (4H730-bH): -0.877
interaction score (4H3297-bH): 0.592
interaction score (4H56-bH): 0.679
interaction score (4H3041-bH): 0.721
interaction score (4H949-bH): -0.161
interaction score (4H932-bH): -0.092
interaction score (4H3381-bH): -0.693
interaction score (4H349-bH): -0.833
interaction score (4H796-bH): -0.497

More lines, now with the values ahead:

interaction score (4H319-bA): -1.24
interaction score (4H3277-bA): -1.24
interaction score (4H492-bA): -1.16
interaction score (4H3057-bA): -0.859
interaction score (4H348-bA): -1.57
interaction score (4H741-bA): -1.38
interaction score (4H40-bA): -1.17
interaction score (4H477-bA): -1.12
Binder: DKIAQLKQKNAELKQKNAELEWEIAQLEQ [4H3057-bA]

interaction score (GCN2_T): -1.88
interaction score (P9-AA): -0.718
interaction score (P3-AA): -1.35
interaction score (P2-AA): -1.71
interaction score (P7-AA): -1.21
interaction score (AP8-AA): -1.3
interaction score (P12-AA): -0.366
interaction score (P4-AA): -1.17
interaction score (P11-AA): -1.41
interaction score (P1-AA): -1.78
interaction score (P10-AA): -0.57
interaction score (P8-AA): -1.39
Binder: DKLAAAKAEIAALEAELAANEAKKAALKG [AP8-AA]
